Patent US9994628B2, “Peptides and combination of peptides for use in immunotherapy against various tumors” (IMMATICS BIOTECHNOLOGIES GMBH, priority 2015, dated 2018)

Target: HLA-A*02:01 (Homo sapiens, UniProt P04439, D140Y/D185E/D98H/E176V/E277Q/G131W/G231S/I119V/I121R/I166T/I218V/L300P/L318F/N151K/N90K/P208A/P217A/Q86G/Q94H/R138H/R169H/T345S)
Assay: MHC binding assay: UV-ligand exchange and β2m ELISA (peptide exchange yield, Table 7)
Conditions: binding of HLA-class I restricted peptides to HLA-A*02:01, UV-ligand exchange
Source text: Candidate peptides for T cell based therapies according to the present invention were further tested for their MHC binding capacity (affinity). The individual peptide-MHC complexes were produced by UV-ligand exchange, where a UV-sensitive peptide is cleaved upon UV-irradiation, and exchanged with the peptide of interest as analyzed. Only peptide candidates that can effectively bind and stabilize the peptide-receptive MHC molecules prevent dissociation of the MHC complexes. To determine the yield of the exchange reaction, an ELISA was performed based on the detection of the light chain (β2 m) of stabilized MHC complexes. The assay was performed as generally described in Rodenko et al. (Rodenko et al., 2006).
96 well MAXISorp plates (NUNC) were coated over night with 2 ug/ml streptavidin in PBS at room temperature, washed 4× and blocked for 1 h at 37° C. in 2% BSA containing blocking buffer. Refolded HLA-A*02:01/MLA-001 monomers served as standards, covering the range of 15-500 ng/ml. Peptide-MHC monomers of the UV-exchange reaction were diluted 100 fold in blocking buffer. Samples were incubated for 1 h at 37° C., washed four times, incubated with 2 ug/ml HRP conjugated anti-β2 m for 1 h at 37° C., washed again and detected with TMB solution that is stopped with […]. Absorption was measured at 450 nm. Candidate peptides that show a high exchange yield (preferably higher than 50%, most preferred higher than 75%) are generally preferred for a generation and production of antibodies or fragments thereof, and/or T cell receptors or fragments thereof, as they show sufficient avidity to the MHC molecules and prevent dissociation of the MHC complexes.

| Substance | Peptide exchange (MHC class I binding score, peptide exchange yield) |
| --- | --- |
| 142 (LLDAAHASI; listed as Homo sapiens) [compound 142] | ++ (≥20% = ++) |
| 143 (MLWESIMRV; listed as Homo sapiens) [compound 143] | +++ (≥50% = +++) |
| 144 (FLISQTPLL; listed as Homo sapiens) [compound 144] | +++ (≥50% = +++) |
| 145 (ALEEKLENV; listed as Homo sapiens) [compound 145] | +++ (≥50% = +++) |
| 146 (VVAAHLAGA; listed as Homo sapiens) [compound 146] | ++ (≥20% = ++) |
| 147 (GLLSALENV; listed as Homo sapiens) [compound 147] | +++ (≥50% = +++) |
| 148 (YLILSSHQL; listed as Homo sapiens) [compound 148] | +++ (≥50% = +++) |
| 149 (NMADGQLHQV; listed as Homo sapiens) [compound 149] | ++ (≥20% = ++) |
| 150 (VLLDMVHSL; listed as Homo sapiens) [compound 150] | +++ (≥50% = +++) |
| 151 (DISKRIQSL; listed as Homo sapiens) [compound 151] | ++ (≥20% = ++) |
| 153 (KLVELEHTL; listed as Homo sapiens) [compound 153] | +++ (≥50% = +++) |
| 154 (AIIKEIQTV; listed as Homo sapiens) [compound 154] | ++ (≥20% = ++) |
| 155 (TLDSYLKAV; listed as Homo sapiens) [compound 155] | ++ (≥20% = ++) |
| 157 (ILQDGQFLV; listed as Homo sapiens) [compound 157] | ++ (≥20% = ++) |
| 158 (YLDPLWHQL; listed as Homo sapiens) [compound 158] | +++ (≥50% = +++) |
| 159 (QLGPVPVTI; listed as Homo sapiens) [compound 159] | +++ (≥50% = +++) |
| 160 (TLQEWLTEV; listed as Homo sapiens) [compound 160] | +++ (≥50% = +++) |
| 161 (NLLDENVCL; listed as Homo sapiens) [compound 161] | ++++ (≥75% = ++++) |
| 162 (GLLGNLLTSL; listed as Homo sapiens) [compound 162] | +++ (≥50% = +++) |
| 163 (GLEERLYTA; listed as Homo sapiens) [compound 163] | ++ (≥20% = ++) |
| 164 (MLIIRVPSV; listed as Homo sapiens) [compound 164] | +++ (≥50% = +++) |

| Substance | Peptide exchange (MHC class I binding score, peptide exchange yield) |
| --- | --- |
| 165 (SLLDYEVSI; listed as Homo sapiens) [compound 165] | +++ (≥50% = +++) |
| 166 (LLGDSSFFL; listed as Homo sapiens) [compound 166] | +++ (≥50% = +++) |
| 167 (LVVDEGSLVSV; listed as Homo sapiens) [compound 167] | +++ (≥50% = +++) |
| 168 (VIFEGEPMYL; listed as Homo sapiens) [compound 168] | +++ (≥50% = +++) |
| 169 (ALADLSVAV; listed as Homo sapiens) [compound 169] | +++ (≥50% = +++) |
| 170 (FIAAVVEKV; listed as Homo sapiens) [compound 170] | ++ (≥20% = ++) |
| 171 (LLLLDVPTA; listed as Homo sapiens) [compound 171] | ++ (≥20% = ++) |
| 173 (RLIDIYKNV; listed as Homo sapiens) [compound 173] | +++ (≥50% = +++) |
| 174 (ALYSGDLHAA; listed as Homo sapiens) [compound 174] | ++ (≥20% = ++) |
| 175 (SLLDLVQSL; listed as Homo sapiens) [compound 175] | +++ (≥50% = +++) |
| 176 (VQSGLRILL; listed as Homo sapiens) [compound 176] | ++ (≥20% = ++) |
| 177 (ALINVLNAL; listed as Homo sapiens) [compound 177] | +++ (≥50% = +++) |
| 178 (SLVSWQLLL; listed as Homo sapiens) [compound 178] | ++++ (≥75% = ++++) |
| 179 (TLGEIIKGV; listed as Homo sapiens) [compound 179] | +++ (≥50% = +++) |
| 180 (RLYEEEIRI; listed as Homo sapiens) [compound 180] | +++ (≥50% = +++) |
| 181 (LLWAPTAQA; listed as Homo sapiens) [compound 181] | +++ (≥50% = +++) |
| 182 (GLQDGFQITV; listed as Homo sapiens) [compound 182] | +++ (≥50% = +++) |
| 183 (ALSYILPYL; listed as Homo sapiens) [compound 183] | +++ (≥50% = +++) |
| 184 (ALDSTIAHL; listed as Homo sapiens) [compound 184] | ++ (≥20% = ++) |
| 185 (TLYQGLPAEV; listed as Homo sapiens) [compound 185] | ++ (≥20% = ++) |
| 187 (SILKEDPFL; listed as Homo sapiens) [compound 187] | ++ (≥20% = ++) |

Results, then the substance that gave them:

| Peptide exchange (MHC class I binding score, peptide exchange yield) | Substance |
| --- | --- |
| ++ (≥20% = ++) | 188 (VLGEEQEGV; listed as Homo sapiens) [compound 188] |
| +++ (≥50% = +++) | 190 (SLSTELFKV; listed as Homo sapiens) [compound 190] |
| +++ (≥50% = +++) | 191 (AAIEIFEKV; listed as Homo sapiens) [compound 191] |
| ++ (≥20% = ++) | 192 (TLLPSSGLVTL; listed as Homo sapiens) [compound 192] |
| +++ (≥50% = +++) | 193 (ALFHMNILL; listed as Homo sapiens) [compound 193] |
| ++ (≥20% = ++) | 194 (KLLEEVQLL; listed as Homo sapiens) [compound 194] |
| +++ (≥50% = +++) | 195 (VIIQNLPAL; listed as Homo sapiens) [compound 195] |
| ++ (≥20% = ++) | 198 (ILTNKVVSV; listed as Homo sapiens) [compound 198] |
| ++ (≥20% = ++) | 199 (SVADLAHVL; listed as Homo sapiens) [compound 199] |
| +++ (≥50% = +++) | 200 (IMPTFDLTKV; listed as Homo sapiens) [compound 200] |
| ++ (≥20% = ++) | 203 (FLFVDPELV; listed as Homo sapiens) [compound 203] |
| +++ (≥50% = +++) | 204 (SEWGSPHAAVP; listed as Homo sapiens) [compound 204] |
| ++++ (≥75% = ++++) | 206 (GLDAFRIFL; listed as Homo sapiens) [compound 206] |
| +++ (≥50% = +++) | 207 (KLFETVEEL; listed as Homo sapiens) [compound 207] |
| ++ (≥20% = ++) | 208 (HLNNDRNPL; listed as Homo sapiens) [compound 208] |
| +++ (≥50% = +++) | 210 (GLAGDNIYL; listed as Homo sapiens) [compound 210] |
| +++ (≥50% = +++) | 211 (LLTTVLINA; listed as Homo sapiens) [compound 211] |
| ++ (≥20% = ++) | 212 (MTLSEIHAV; listed as Homo sapiens) [compound 212] |
| +++ (≥50% = +++) | 213 (ILAVDGVLSV; listed as Homo sapiens) [compound 213] |
